Measured values as given in US20140271675A1 (Eli Lilly, published 2014).

What was measured:
[1] = molecular target: hVEGFR1-Fc (R&D 321-fl 050/cf) (human) (UniProt P17948); assay: competition ELISA, coated hVEGFR1-Fc, competitor biotin-hPLGF1 2 nM; control Ron antibody 50.000 µg/ml
[2] = molecular target: hVEGFR1-Fc (R&D 321-fl 050/cf) (human) (UniProt P17948); assay: competition ELISA, coated hVEGFR1-Fc, competitor biotin-hPLGF1 4 nM; control Ron antibody 0.5556 µg/ml
[3] = molecular target: hVEGFR1-Fc (R&D 321-fl 050/cf) (human) (UniProt P17948); assay: competition ELISA, coated hVEGFR1-Fc, competitor biotin-hVEGFA-165 2 nM; control Ron antibody 0.0023 µg/ml
[4] = molecular target: hVEGFR1-Fc (R&D 321-fl 050/cf) (human) (UniProt P17948); assay: competition ELISA, coated hVEGFR1-Fc, competitor biotin-hVEGFA-165 2 nM; control Ron antibody 50.000 µg/ml
[5] = molecular target: hVEGFR1-Fc (R&D 321-fl 050/cf) (human) (UniProt P17948); assay: competition ELISA, coated hVEGFR1-Fc, competitor biotin-hVEGFA-165 2 nM; control Ron antibody 0.617 µg/ml
[6] = molecular target: hVEGFR1-Fc (R&D 321-fl 050/cf) (human) (UniProt P17948); assay: competition ELISA, coated hVEGFR1-Fc, competitor biotin-hPLGF1 4 nM; control Ron antibody 0.0617 µg/ml
[7] = molecular target: hVEGFR1-Fc (R&D 321-fl 050/cf) (human) (UniProt P17948); assay: competition ELISA, coated hVEGFR1-Fc, competitor biotin-hVEGFA-165 2 nM; control Ron antibody 0.5556 µg/ml
[8] = molecular target: hVEGFR1-Fc (R&D 321-fl 050/cf) (human) (UniProt P17948); assay: competition ELISA, coated hVEGFR1-Fc, competitor biotin-hPLGF1 4 nM; control Ron antibody 0.0206 µg/ml
[9] = molecular target: hVEGFR1-Fc (R&D 321-fl 050/cf) (human) (UniProt P17948); assay: competition ELISA, coated hVEGFR1-Fc, competitor biotin-hPLGF1 2 nM; control Ron antibody 0.617 µg/ml
[10] = molecular target: hVEGFR1-Fc (R&D 321-fl 050/cf) (human) (UniProt P17948); assay: competition ELISA, coated hVEGFR1-Fc, competitor biotin-hVEGFA-165 2 nM; control Ron antibody 0.023 µg/ml
[11] = molecular target: hVEGFR1-Fc (R&D 321-fl 050/cf) (human) (UniProt P17948); assay: competition ELISA, coated hVEGFR1-Fc, competitor biotin-hPLGF1 2 nM; control Ron antibody 1.852 µg/ml
[12] = molecular target: hVEGFR1-Fc (R&D 321-fl 050/cf) (human) (UniProt P17948); assay: competition ELISA, coated hVEGFR1-Fc, competitor biotin-hVEGFA-165 2 nM; control Ron antibody 0.069 µg/ml
[13] = molecular target: hVEGFR1-Fc (R&D 321-fl 050/cf) (human) (UniProt P17948); assay: competition ELISA, coated hVEGFR1-Fc, competitor biotin-hVEGFA-165 2 nM; control Ron antibody 16.667 µg/ml
[14] = molecular target: hVEGFR1-Fc (R&D 321-fl 050/cf) (human) (UniProt P17948); assay: competition ELISA, coated hVEGFR1-Fc, competitor biotin-hPLGF1 4 nM; control Ron antibody 1.6667 µg/ml
[15] = molecular target: hVEGFR1-Fc (R&D 321-fl 050/cf) (human) (UniProt P17948); assay: competition ELISA, coated hVEGFR1-Fc, competitor biotin-hVEGFA-165 2 nM; control Ron antibody 0.206 µg/ml
[16] = molecular target: hVEGFR1-Fc (R&D 321-fl 050/cf) (human) (UniProt P17948); assay: competition ELISA, coated hVEGFR1-Fc, competitor biotin-hPLGF1 2 nM; control Ron antibody 0.069 µg/ml
[17] = molecular target: hVEGFR1-Fc (R&D 321-fl 050/cf) (human) (UniProt P17948); assay: competition ELISA, coated hVEGFR1-Fc, competitor biotin-hPLGF1 2 nM; control Ron antibody 0.023 µg/ml
[18] = molecular target: hVEGFR1-Fc (R&D 321-fl 050/cf) (human) (UniProt P17948); assay: competition ELISA, coated hVEGFR1-Fc, competitor biotin-hVEGFA-165 2 nM; control Ron antibody 0.0069 µg/ml
[19] = molecular target: hVEGFR1-Fc (R&D 321-fl 050/cf) (human) (UniProt P17948); assay: competition ELISA, coated hVEGFR1-Fc, competitor biotin-hPLGF1 4 nM; control Ron antibody 0.1852 µg/ml
[20] = molecular target: hVEGFR1-Fc (R&D 321-fl 050/cf) (human) (UniProt P17948); assay: competition ELISA, coated hVEGFR1-Fc, competitor biotin-hVEGFA-165 2 nM; control Ron antibody 0.0206 µg/ml
[21] = molecular target: hVEGFR1-Fc (R&D 321-fl 050/cf) (human) (UniProt P17948); assay: competition ELISA, coated hVEGFR1-Fc, competitor biotin-hPLGF1 2 nM; control Ron antibody 5.556 µg/ml
[22] = molecular target: hVEGFR1-Fc (R&D 321-fl 050/cf) (human) (UniProt P17948); assay: competition ELISA, coated hVEGFR1-Fc, competitor biotin-hVEGFA-165 2 nM; control Ron antibody 5.0000 µg/ml
[23] = molecular target: hVEGFR1-Fc (R&D 321-fl 050/cf) (human) (UniProt P17948); assay: competition ELISA, coated hVEGFR1-Fc, competitor biotin-hVEGFA-165 2 nM; control Ron antibody 0.0617 µg/ml
[24] = molecular target: hVEGFR1-Fc (R&D 321-fl 050/cf) (human) (UniProt P17948); assay: competition ELISA, coated hVEGFR1-Fc, competitor biotin-hVEGFA-165 2 nM; control Ron antibody 1.6667 µg/ml

Sequence of hVEGFR1-Fc (R&D 321-fl 050/cf) (human) (P17948 27-758): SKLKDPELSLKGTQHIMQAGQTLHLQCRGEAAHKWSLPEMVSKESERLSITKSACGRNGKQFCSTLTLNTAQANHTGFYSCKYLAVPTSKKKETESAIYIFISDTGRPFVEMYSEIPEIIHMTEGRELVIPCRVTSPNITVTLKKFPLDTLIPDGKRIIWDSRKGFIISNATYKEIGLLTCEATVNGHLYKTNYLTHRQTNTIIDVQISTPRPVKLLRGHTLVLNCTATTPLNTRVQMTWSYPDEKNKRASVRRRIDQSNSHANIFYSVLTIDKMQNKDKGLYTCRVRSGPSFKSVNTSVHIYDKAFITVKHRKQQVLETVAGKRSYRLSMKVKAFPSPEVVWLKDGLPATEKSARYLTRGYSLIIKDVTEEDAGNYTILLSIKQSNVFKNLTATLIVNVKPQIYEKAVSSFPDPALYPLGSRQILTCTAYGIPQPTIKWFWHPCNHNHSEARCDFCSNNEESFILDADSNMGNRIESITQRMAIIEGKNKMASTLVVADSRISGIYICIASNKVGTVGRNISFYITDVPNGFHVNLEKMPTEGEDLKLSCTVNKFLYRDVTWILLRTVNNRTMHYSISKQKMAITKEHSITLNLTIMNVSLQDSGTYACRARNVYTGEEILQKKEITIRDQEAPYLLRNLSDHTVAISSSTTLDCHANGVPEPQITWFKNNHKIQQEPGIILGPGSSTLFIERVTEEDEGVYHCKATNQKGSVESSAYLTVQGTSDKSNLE

## control Ron antibody (R&D MAB691)
[1]
  OD560 (bound biotinylated PlGF): 0.339 OD
[2]
  OD560 (bound biotinylated PlGF): 0.436 OD
[3]
  OD560 (bound biotinylated VEGF-A): 1.54 OD
[4]
  OD560 (bound biotinylated VEGF-A): 0.515 OD
[5]
  OD560 (bound biotinylated VEGF-A): 0.535 OD
[6]
  OD560 (bound biotinylated PlGF): 0.408 OD
[7]
  OD560 (bound biotinylated VEGF-A): 1.47 OD
[8]
  OD560 (bound biotinylated PlGF): 0.389 OD
[9]
  OD560 (bound biotinylated PlGF): 0.295 OD
[10]
  OD560 (bound biotinylated VEGF-A): 0.506 OD
[11]
  OD560 (bound biotinylated PlGF): 0.3 OD
[12]
  OD560 (bound biotinylated VEGF-A): 0.519 OD
[13]
  OD560 (bound biotinylated VEGF-A): 0.566 OD
[14]
  OD560 (bound biotinylated PlGF): 0.432 OD
[15]
  OD560 (bound biotinylated VEGF-A): 0.554 OD
[16]
  OD560 (bound biotinylated PlGF): 0.283 OD
[17]
  OD560 (bound biotinylated PlGF): 0.296 OD
[18]
  OD560 (bound biotinylated VEGF-A): 1.53 OD
[19]
  OD560 (bound biotinylated PlGF): 0.405 OD
[20]
  OD560 (bound biotinylated VEGF-A): 1.62 OD
[21]
  OD560 (bound biotinylated PlGF): 0.298 OD
[22]
  OD560 (bound biotinylated VEGF-A): 1.51 OD
[23]
  OD560 (bound biotinylated VEGF-A): 1.51 OD
[24]
  OD560 (bound biotinylated VEGF-A): 1.42 OD
